Reference: the supplement of paper PMC10567573

B1: POMT2 (parent)
chain: VLRSRIRFIHLVTGCVLGSSGKVL
B2: ZNF263 (parent)
chain: FAHSSNLLRHQRIHTGERPYKCPE

Variants of: B1
Experiment: protein stability index of a GFP-peptide fusion (GPS, HEK-293T) (PSI 1-6); higher = more stable
Settings: c terminus: a fixed tail appended
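Note: lentivirally expressed fusions sorted by FACS into six bins by GFP to DsRed ratio, PSI derived from sequencing read proportions per bin multiplied by bin number.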

Variant | protein stability index
VLRSRIRFRHLVTGCVLGSSGKVL | 1.39
VLRSRIRFPHLVTGCVLGSSGKVL | 1.42
VLRSRIRFEHLVTGCVLGSSGKVL | 2.34
VLRSRIRFDHLVTGCVLGSSGKVL | 1.63
VLRSRIRFAHLVTGCVLGSSGKVL | 4.43
VLRSRIRFQHLVTGCVLGSSGKVL | 2.87
VLRSRIRFNHLVTGCVLGSSGKVL | 2.64
VLRSRIRFSHLVTGCVLGSSGKVL | 2.78
VLRSRIRFCHLVTGCVLGSSGKVL | 1.74
VLRSRIRFFHLVTGCVLGSSGKVL | 1.85
VLRSRIRFKHLVTGCVLGSSGKVL | 2.98
VLRSRIRFMHLVTGCVLGSSGKVL | 2.73
VLRSRIRFLHLVTGCVLGSSGKVL | 2.5
VLRSRIRFGHLVTGCVLGSSGKVL | 2.62
VLRSRIRFHHLVTGCVLGSSGKVL | 4.48
LLRSRIRFIHLVTGCVLGSSGKVL | 2.15
DLRSRIRFIHLVTGCVLGSSGKVL | 2.88
TLRSRIRFIHLVTGCVLGSSGKVL | 3
ILRSRIRFIHLVTGCVLGSSGKVL | 2.76
ELRSRIRFIHLVTGCVLGSSGKVL | 2.61
PLRSRIRFIHLVTGCVLGSSGKVL | 3.01
ALRSRIRFIHLVTGCVLGSSGKVL | 2.38
GLRSRIRFIHLVTGCVLGSSGKVL | 1.39

Variant | protein stability index
SLRSRIRFIHLVTGCVLGSSGKVL | 3.21
YLRSRIRFIHLVTGCVLGSSGKVL | 2.51
KLRSRIRFIHLVTGCVLGSSGKVL | 2.88
NLRSRIRFIHLVTGCVLGSSGKVL | 3.04
MLRSRIRFIHLVTGCVLGSSGKVL | 3.35
RLRSRIRFIHLVTGCVLGSSGKVL | 1.96
WLRSRIRFIHLVTGCVLGSSGKVL | 1.4
HLRSRIRFIHLVTGCVLGSSGKVL | 2.8
VLRFRIRFIHLVTGCVLGSSGKVL | 2.29
VLRKRIRFIHLVTGCVLGSSGKVL | 3.75
VLRTRIRFIHLVTGCVLGSSGKVL | 3.04
VLRERIRFIHLVTGCVLGSSGKVL | 2.36
VLRLRIRFIHLVTGCVLGSSGKVL | 3.33
VLRYRIRFIHLVTGCVLGSSGKVL | 3.18
VLRRRIRFIHLVTGCVLGSSGKVL | 2.66
VLRNRIRFIHLVTGCVLGSSGKVL | 4.14
VLRDRIRFIHLVTGCVLGSSGKVL | 2.56
VLRVRIRFIHLVTGCVLGSSGKVL | 2.38
VLRIRIRFIHLVTGCVLGSSGKVL | 2.53
VLRQRIRFIHLVTGCVLGSSGKVL | 3.06
VLRHRIRFIHLVTGCVLGSSGKVL | 2.09
VLRSRIYFIHLVTGCVLGSSGKVL | 2.4
VLRSRICFIHLVTGCVLGSSGKVL | 2.94

Variant | protein stability index
VLRSRIVFIHLVTGCVLGSSGKVL | 2.05
VLRSRIPFIHLVTGCVLGSSGKVL | 2.44
VLRSRIGFIHLVTGCVLGSSGKVL | 2.67
VLRSRIAFIHLVTGCVLGSSGKVL | 3.22
VLRSRILFIHLVTGCVLGSSGKVL | 2.52
VLRSRIKFIHLVTGCVLGSSGKVL | 3.58
VLRSRIDFIHLVTGCVLGSSGKVL | 1.59
VLRSRIEFIHLVTGCVLGSSGKVL | 2.94
VLRSRINFIHLVTGCVLGSSGKVL | 2.44
VLRSRIWFIHLVTGCVLGSSGKVL | 2.28
VLRSRITFIHLVTGCVLGSSGKVL | 3
VLRSRIHFIHLVTGCVLGSSGKVL | 3.62
VLRSRIMFIHLVTGCVLGSSGKVL | 3.48
VLRSSIRFIHLVTGCVLGSSGKVL | 1.06
VLRSHIRFIHLVTGCVLGSSGKVL | 2.82
VLRSGIRFIHLVTGCVLGSSGKVL | 2.25
VLRSVIRFIHLVTGCVLGSSGKVL | 2.4
VLRSDIRFIHLVTGCVLGSSGKVL | 2.67
VLRSWIRFIHLVTGCVLGSSGKVL | 2.14
VLRSIIRFIHLVTGCVLGSSGKVL | 2.1
VLRSTIRFIHLVTGCVLGSSGKVL | 1.99
VLRSPIRFIHLVTGCVLGSSGKVL | 3.07
VLRSLIRFIHLVTGCVLGSSGKVL | 3.1

Variant | protein stability index
VLRSEIRFIHLVTGCVLGSSGKVL | 2.83
VLRSMIRFIHLVTGCVLGSSGKVL | 2.92
VLRSYIRFIHLVTGCVLGSSGKVL | 2.99
VLRSNIRFIHLVTGCVLGSSGKVL | 2.48
VLRSFIRFIHLVTGCVLGSSGKVL | 2.21
VHRSRIRFIHLVTGCVLGSSGKVL | 2.81
VPRSRIRFIHLVTGCVLGSSGKVL | 1.76
VARSRIRFIHLVTGCVLGSSGKVL | 3.86
VQRSRIRFIHLVTGCVLGSSGKVL | 3.47
VRRSRIRFIHLVTGCVLGSSGKVL | 3.38
VSRSRIRFIHLVTGCVLGSSGKVL | 2.72
VERSRIRFIHLVTGCVLGSSGKVL | 1.06
VFRSRIRFIHLVTGCVLGSSGKVL | 2.75
VVRSRIRFIHLVTGCVLGSSGKVL | 2.83
VKRSRIRFIHLVTGCVLGSSGKVL | 3.28
VNRSRIRFIHLVTGCVLGSSGKVL | 2.4
VMRSRIRFIHLVTGCVLGSSGKVL | 2.49
VIRSRIRFIHLVTGCVLGSSGKVL | 2.71
VDRSRIRFIHLVTGCVLGSSGKVL | 3.93
VCRSRIRFIHLVTGCVLGSSGKVL | 2.48
VLESRIRFIHLVTGCVLGSSGKVL | 2.31
VLFSRIRFIHLVTGCVLGSSGKVL | 2.27
VLYSRIRFIHLVTGCVLGSSGKVL | 2.82

Variant | protein stability index
VLMSRIRFIHLVTGCVLGSSGKVL | 3.2
VLISRIRFIHLVTGCVLGSSGKVL | 3.85
VLTSRIRFIHLVTGCVLGSSGKVL | 2.65
VLSSRIRFIHLVTGCVLGSSGKVL | 3.27
VLNSRIRFIHLVTGCVLGSSGKVL | 2.43
VLHSRIRFIHLVTGCVLGSSGKVL | 2.39
VLLSRIRFIHLVTGCVLGSSGKVL | 2.04
VLPSRIRFIHLVTGCVLGSSGKVL | 3.15
VLVSRIRFIHLVTGCVLGSSGKVL | 2.18
VLASRIRFIHLVTGCVLGSSGKVL | 1.24
VLGSRIRFIHLVTGCVLGSSGKVL | 3.29
VLCSRIRFIHLVTGCVLGSSGKVL | 2.14
VLRSRIRCIHLVTGCVLGSSGKVL | 3.6
VLRSRIRKIHLVTGCVLGSSGKVL | 2.4
VLRSRIRGIHLVTGCVLGSSGKVL | 1.66
VLRSRIRVIHLVTGCVLGSSGKVL | 2.68
VLRSRIRTIHLVTGCVLGSSGKVL | 2.35
VLRSRIRRIHLVTGCVLGSSGKVL | 2.11
VLRSRIREIHLVTGCVLGSSGKVL | 1.76
VLRSRIRNIHLVTGCVLGSSGKVL | 1.9
VLRSRIRAIHLVTGCVLGSSGKVL | 1.04
VLRSRIRPIHLVTGCVLGSSGKVL | 1.48
VLRSRIRQIHLVTGCVLGSSGKVL | 1.67

Variant | protein stability index
VLRSRIRSIHLVTGCVLGSSGKVL | 1.57
VLRSRIRIIHLVTGCVLGSSGKVL | 3.13
VLRSRIRWIHLVTGCVLGSSGKVL | 2.35
VLRSRIRHIHLVTGCVLGSSGKVL | 2.79
VLRSRIRDIHLVTGCVLGSSGKVL | 1.88
VLRSRVRFIHLVTGCVLGSSGKVL | 3.12
VLRSRPRFIHLVTGCVLGSSGKVL | 3.19
VLRSRMRFIHLVTGCVLGSSGKVL | 2.88
VLRSRRRFIHLVTGCVLGSSGKVL | 1.78
VLRSRHRFIHLVTGCVLGSSGKVL | 2.53
VLRSRKRFIHLVTGCVLGSSGKVL | 2.08
VLRSRGRFIHLVTGCVLGSSGKVL | 2.81
VLRSRARFIHLVTGCVLGSSGKVL | 1.64
VLRSRLRFIHLVTGCVLGSSGKVL | 2.83
VLRSRSRFIHLVTGCVLGSSGKVL | 1.83
VLRSRFRFIHLVTGCVLGSSGKVL | 3.11
VLRSRCRFIHLVTGCVLGSSGKVL | 4.38
VLRSRDRFIHLVTGCVLGSSGKVL | 1.89
VLRSRTRFIHLVTGCVLGSSGKVL | 1.3
VLRSRYRFIHLVTGCVLGSSGKVL | 3.93
VLRSRERFIHLVTGCVLGSSGKVL | 2.45

Variants of: B2
Experiment: as above
Settings: c terminus: a fixed tail appended

Variant | protein stability index
FAHSSNLLRHQRIHTGERPYKHPE | 2.8
FAHSSNLLRHQRIHTGERPYKTPE | 2.03
FAHSSNLLRHQRIHTGERPYKSPE | 3.48
FAHSSNLLRHQRIHTGERPYKIPE | 2.06
FAHSSNLLRHQRIHTGERPYKPPE | 2.58
FAHSSNLLRHQRIHTGERPYKVPE | 2.13
FAHSSNLLRHQRIHTGERPYKNPE | 2.95
FAHSSNLLRHQRIHTGERPYKMPE | 2.26
FAHSSNLLRHQRIHTGERPYKWPE | 2.08
FAHSSNLLRHQRIHTGERPYKYPE | 2.44
FAHSSNLLRHQRIHTGERPYKLPE | 2.25
FAHSSNLLRHQRIHTGERPYKQPE | 2.9
FAHSSNLLRHQRIHTGERPYKRPE | 2.29
FAHSSNLLRHQRIHTGERPYKKPE | 2.15
FAHSSNLLRHQRIHTGERPYKCPN | 1.88
FAHSSNLLRHQRIHTGERPYKCPR | 2.15
FAHSSNLLRHQRIHTGERPYKCPW | 2.72
FAHSSNLLRHQRIHTGERPYKCPY | 2.28
FAHSSNLLRHQRIHTGERPYKCPP | 1.87
FAHSSNLLRHQRIHTGERPYKCPA | 1.89
FAHSSNLLRHQRIHTGERPYKCPD | 2.44
FAHSSNLLRHQRIHTGERPYKCPK | 2.46
FAHSSNLLRHQRIHTGERPYKCPL | 1.48
FAHSSNLLRHQRIHTGERPYKCPV | 1.56
FAHSSNLLRHQRIHTGERPYKCPH | 2.16
FAHSSNLLRHQRIHTGERPYKCPM | 2.4

Variant | protein stability index
FAHSSNLLRHQRIHTGERPYKCPF | 1.59
FAHSSNLLRHQRIHTGERPYKCPG | 1.92
FAHSSNLLRHQRIHTGERPYKCPS | 1.84
FAHSSNLLRHQRIHTGERPYKCPC | 1.56
FAHSSNLLRHQRIHTGERPYKCPQ | 2.33
FAHSSNLLRHQRIHTGERPYKCPI | 1.7
FAHSSNLLRHQRIHTGERPYKCPT | 1.87
FAHSSNLLRHQRIHTGERPYKCSE | 2.41
FAHSSNLLRHQRIHTGERPYKCEE | 2.67
FAHSSNLLRHQRIHTGERPYKCME | 2.2
FAHSSNLLRHQRIHTGERPYKCRE | 1.95
FAHSSNLLRHQRIHTGERPYKCDE | 2.47
FAHSSNLLRHQRIHTGERPYKCTE | 2.29
FAHSSNLLRHQRIHTGERPYKCKE | 2.52
FAHSSNLLRHQRIHTGERPYKCIE | 2.58
FAHSSNLLRHQRIHTGERPYKCWE | 2.2
FAHSSNLLRHQRIHTGERPYKCYE | 2.5
FAHSSNLLRHQRIHTGERPYKCHE | 2.36
FAHSSNLLRHQRIHTGERPYKCCE | 1.64
FAHSSNLLRHQRIHTGERPYKCAE | 2.54
FAHSSNLLRHQRIHTGERPYKCLE | 2.12
FAHSSNLLRHQRIHTGERPYKCFE | 2.11
FAHSSNLLRHQRIHTGERPYKCVE | 1.87
FAHSSNLLRHQRIHTGERPYKCNE | 2.56
FAHSSNLLRHQRIHTGERPYKCQE | 3
FAHSSNLLRHQRIHTGERPYKCGE | 2.82
